Experimental data taken from patent CN107042098A.

Key:
[1] = biological target: Myc-GST融合蛋白 (Myc标签与谷胱甘肽融合的蛋白); experiment: indirect ELISA, Myc-GST coated at 5 μg/mL, HRP anti-His secondary; heat test at 90℃
[2] = biological target: Myc-GST融合蛋白 (Myc标签与谷胱甘肽融合的蛋白); experiment: indirect ELISA, Myc-GST coated at 5 μg/mL, HRP anti-His secondary; heat test at 80℃
[3] = biological target: Myc-GST融合蛋白 (Myc标签与谷胱甘肽融合的蛋白); experiment: indirect ELISA, Myc-GST coated at 5 μg/mL, HRP anti-His secondary; heat test at 70℃

B1: 抗c-Myc标签单域重链抗体 (anti-c-Myc tag single-domain heavy-chain antibody, SEQ ID NO.:1) (VHH, not shown: small tags and cut ends)
VHH: QLQLVESGGGLVQAGGSLRLSCAVSGFTFSANAMSWVRQAPGKGPEWVSSINRGGASAEYADSVKGRFTISRDDAKNTLYLQMNSLKPEDTALYYCARGNYRGSYFNGPRTYWGRGTQVTVSP
Q: With B1 as the binder, how does the OD450 [1] read?
A: 1.1 OD450

Q: What about the OD450 [2] of the same binder?
A: 1.2 OD450

Q: And the OD450 [3]?
A: 1.4 OD450
